B1: bKiMBI: ERK blue KiMBI, WW F25A; SEQ ID NO:2 (protein)
chain: MVSKGEELIKENMRSKLYLEGSVNGHQFKCTHEGEGKPYEGKQTNRIKVVEGGPLPFAFDILATHFMYGSKVFIKYPADLPDYFKQSFPEGFTWERVMVFEDGGVLTATQDTSLQDGELIYNVKVRGVNFPANGPVMQKKTLGWEPSTETMYPADGGLEGRCDKALKLVGGGHLHVNFKTTYKSKKPVKMPGVHYVDRRLERIKEADNETYVEQYEHAVARYSNLGGGFTLEDFVGDWEQTAAYNLDQVLEQGGVSSLLQNLAVSVTPIQRIVRSGENALKIDIHVIIPYEGLSADQMAQIEEVFKVVYPVDDHHFKVILPYGTLVIDGVTPNMLNYFGRPYEGIAVFDGKKITVTGTLWNGNKIIDERLITPDGSMLFRVTINSIMADEEKLPPGWEKRMSRSSGRVYYANHITNASQWERPSGNSSSGGKNGQGEPARVTGYRLFEPDSPRTPVDKAKLSFQFP
B2: tKiMBI: ERK KiMBI with N-terminal tdTomato; SEQ ID NO:4 (protein)
chain: MVSKGEEVIKEFMRFKVRMEGSMNGHEFEIEGEGEGRPYEGTQTAKLKVTKGGPLPFAWDILSPQFMYGSKAYVKHPADIPDYKKLSFPEGFKWERVMNFEDGGLVTVTQDSSLQDGTLIYKVKMRGTNFPPDGPVMQKKTMGWEASTERLYPRDGVLKGEIHQALKLKDGGHYLVEFKTIYMAKKPVQLPGYYYVDTKLDITSHNEDYTIVEQYERSEGRHHLFLGHGTGSTGSGSSGTASSEDNNMAVIKEFMRFKVRMEGSMNGHEFEIEGEGEGRPYEGTQTAKLKVTKGGPLPFAWDILSPQFMYGSKAYVKHPADIPDYKKLSFPEGFKWERVMNFEDGGLVTVTQDSSLQDGTLIYKVKMRGTNFPPDGPVMQKKTMGWEASTERLYPRDGVLKGEIHQALKLKDGGHYLVEFKTIYMAKKPVQLPGYYYVDTKLDITSHNEDYTIVEQYERSEGRHHLFRLEDFVGDWEQTAAYNLDQVLEQGGVSSLLQNLAVSVTPIQRIVRSGENALKIDIHVIIPYEGLSADQMAQIEEVFKVVYPVDDHHFKVILPYGTLVIDGVTPNMLNYFGRPYEGIAVFDGKKITVTGTLWNGNKIIDERLITPDGSMLFRVTINSIMADEEKLPPGWEKRMSRSSGRVYYFNHITNASQWERPSGNSSSGGKNGQGEPARVTGYRLFEPDSPRTPVDKAKLSFQFP

Tests used:
[1] = test system: ERK; assay: bKiMBI bioluminescence in cancer cell lines U87, U87-EGFRvIII, SK-OV-3; assay type: cell-based, human; conditions: SK-OV-3 cells
Excerpt: Endogenous ERK activity in these cell lines appeared to be only partially activated, as co-expressing caMEK further suppressed basal KiMBI signal. […] This provides additional evidence that KiMBI responds positively to ERK inhibition, and argues against inhibitors directly binding KiMBIs to enhance NanoLuc assembly or catalysis. […] Positive KiMBI responses must actually overcome this tendency of kinase inhibitors to suppress bioluminescence.
In vitro cell-based bioluminescent assay. Cells were seeded into 96-well Lumitrac plate (Greiner Bio-One) at a density of 1.5-2×10^4 cells per well. After 24 h, cells were transiently transfected with KiMBI-expressing plasmids (5-10 ng per well) with or without caMEK-expressing plasmids (50 ng per well, empty pcDNA3.1 as negative control to keep total transfected DNA amount consistent) using lipofectamine 3000 (Invitrogen) following manufacturer's instructions. […] Then, for assaying luminescence, Nano-Glo live cell assay system (Promega) was used following manufacturer's instructions. Time-lapse live luminescence was recorded on Safire-2 microplate reader (Tecan) with 100 ms integration and one read per min for 20 min. Luminescence spectrum was measured on a Varioskan LUX multimode microplate reader (Thermo Scientific) using the spectral scanning protocol with 1 s integration for each wavelength at 400-680 nm (1 nm per data point).

[2] = test system: ERK; assay: ERK KiMBI cell-based bioluminescent assay, HEK293A cells co-transfected with caMEK; conditions: FIG. 5d
Excerpt: To develop a luciferase reporter protein whose activity can be activated by ERK inhibition, it was hypothesized that NanoLuc luciferase catalytic activity could be modulated through large ERK-induced conformational changes. Created and tested were fusion proteins of various topologies (FIG. 2a) comprising the NanoLuc NanoBiT fragments, an ERK substrate peptide from Cdc25C^7, and a proline-directed WW phospho-binding domain (WW)^8 from Pin1. In particular, an arrangement was postulated in which binding of phosphorylated substrate (pSub) to WW would force the SmBiT fragment to adopt an unfavorable conformation for LgBiT complementation, would show low luminescence with active ERK and high luminescence with inhibited ERK (FIG. 2b). […]
In vitro cell-based bioluminescent assay. […] Then, for assaying luminescence, Nano-Glo live cell assay system (Promega) was used following manufacturer's instructions. Time-lapse live luminescence was recorded on Safire-2 microplate reader (Tecan) with 100 ms integration and one read per min for 20 min. Luminescence spectrum was measured on a Varioskan LUX multimode microplate reader (Thermo Scientific) using the spectral scanning protocol with 1 s integration for each wavelength at 400-680 nm (1 nm per data point).

Molecule	bKiMBI response (brightness increase) after ERK inhibition [1]	time to full induction of reporter by kinase inhibitor [2]
B1	~2.5 fold	–
B2	–	~1 h

Source: patent US20260077065A1, “Compositions and Methods for Assessing Kinase Activity” (The Board of Trustees of the Leland Stanford Junior …, priority 2022, published 2026)
